Source: US20230391890A1 (CORNELL UNIVERSITY, published 2023)

T1: native CEMIP/KIAA1199 expressed on the surface of human cancer cells (human, UniProt Q8WUJ3 31-1361)
T1 construct: Endogenous CEMIP of MKN45 gastric and N2LA lung cancer cells in flow cytometry; The same entry is used for CEMIP on exosomes of brain tropic MDA-MB231 cells in the brain slice assay; also called native cell surface CEMIP/KIAA1199; CEMIP on MKN45 and N2LA cells
T1 sequence: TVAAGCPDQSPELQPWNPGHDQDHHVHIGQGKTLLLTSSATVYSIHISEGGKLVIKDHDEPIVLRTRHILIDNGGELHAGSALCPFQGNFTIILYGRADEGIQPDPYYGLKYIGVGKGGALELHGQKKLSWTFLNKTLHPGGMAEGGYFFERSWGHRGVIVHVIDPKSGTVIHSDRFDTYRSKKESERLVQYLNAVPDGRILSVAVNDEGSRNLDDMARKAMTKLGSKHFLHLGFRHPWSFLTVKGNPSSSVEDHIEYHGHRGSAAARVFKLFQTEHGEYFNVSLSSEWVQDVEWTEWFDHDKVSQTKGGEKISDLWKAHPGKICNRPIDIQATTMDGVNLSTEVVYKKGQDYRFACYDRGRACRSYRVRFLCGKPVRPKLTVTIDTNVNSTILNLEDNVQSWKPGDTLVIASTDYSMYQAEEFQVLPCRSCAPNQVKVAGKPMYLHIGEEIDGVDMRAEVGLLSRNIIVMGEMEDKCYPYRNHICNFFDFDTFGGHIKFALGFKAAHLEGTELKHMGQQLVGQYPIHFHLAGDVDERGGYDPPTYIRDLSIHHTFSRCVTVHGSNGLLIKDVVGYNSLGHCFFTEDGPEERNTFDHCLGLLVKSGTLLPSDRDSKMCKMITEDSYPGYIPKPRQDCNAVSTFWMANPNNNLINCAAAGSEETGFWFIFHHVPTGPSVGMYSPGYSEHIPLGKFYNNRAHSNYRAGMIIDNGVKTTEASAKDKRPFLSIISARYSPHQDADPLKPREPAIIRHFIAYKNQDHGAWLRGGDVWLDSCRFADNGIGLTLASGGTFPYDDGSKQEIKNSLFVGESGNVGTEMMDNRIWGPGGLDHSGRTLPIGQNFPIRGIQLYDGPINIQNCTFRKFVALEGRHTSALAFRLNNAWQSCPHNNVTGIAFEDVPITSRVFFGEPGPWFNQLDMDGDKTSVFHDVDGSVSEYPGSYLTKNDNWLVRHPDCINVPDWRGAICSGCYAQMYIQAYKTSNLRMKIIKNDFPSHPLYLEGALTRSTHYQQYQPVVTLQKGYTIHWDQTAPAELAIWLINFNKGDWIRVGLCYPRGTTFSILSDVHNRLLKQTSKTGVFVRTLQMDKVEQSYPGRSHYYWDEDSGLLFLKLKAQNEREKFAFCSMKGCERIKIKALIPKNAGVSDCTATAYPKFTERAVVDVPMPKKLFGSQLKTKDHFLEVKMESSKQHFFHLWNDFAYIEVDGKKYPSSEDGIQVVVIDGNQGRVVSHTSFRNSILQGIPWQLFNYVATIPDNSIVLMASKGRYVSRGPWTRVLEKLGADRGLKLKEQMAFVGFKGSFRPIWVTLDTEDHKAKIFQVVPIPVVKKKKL

T2: purified KIAA1199/CEMIP protein (aa 1-649) (human, UniProt Q8WUJ3 31-649)
T2 construct: also called recombinant KIAA1199/CEMIP protein
T2 sequence: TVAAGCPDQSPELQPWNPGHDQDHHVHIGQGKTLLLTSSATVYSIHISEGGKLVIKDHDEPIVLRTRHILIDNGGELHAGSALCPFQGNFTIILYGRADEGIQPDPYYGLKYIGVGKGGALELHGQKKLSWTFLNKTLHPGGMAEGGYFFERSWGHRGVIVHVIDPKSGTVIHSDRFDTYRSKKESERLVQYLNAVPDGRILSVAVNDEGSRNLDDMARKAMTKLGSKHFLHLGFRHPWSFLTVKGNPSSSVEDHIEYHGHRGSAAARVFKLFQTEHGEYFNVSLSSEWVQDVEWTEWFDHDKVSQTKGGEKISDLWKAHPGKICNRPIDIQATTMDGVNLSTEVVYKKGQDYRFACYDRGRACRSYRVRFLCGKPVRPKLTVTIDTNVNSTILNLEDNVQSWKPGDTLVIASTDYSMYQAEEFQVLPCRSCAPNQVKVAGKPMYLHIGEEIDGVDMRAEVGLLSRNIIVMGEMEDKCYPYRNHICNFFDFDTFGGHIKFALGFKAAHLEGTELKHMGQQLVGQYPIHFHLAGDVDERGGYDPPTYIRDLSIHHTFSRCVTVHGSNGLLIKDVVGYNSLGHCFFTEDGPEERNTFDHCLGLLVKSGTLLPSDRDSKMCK


Legend:
[1] = target: T1, native CEMIP/KIAA1199 expressed on the …; assay: flow cytometry on MKN45 cells
[2] = target: T2, purified KIAA1199/CEMIP protein (aa …); assay: ELISA on recombinant CEMIP, purified antibody
[3] = target: T1, native CEMIP/KIAA1199 expressed on the …; assay: cell-based or functional assay

Row | binding result [1] | binding result [2] | GFP+ parental MDA-MB231 cells on the slice, 3D organotypic brain slice assay, CEMIP-positive exosomes pre-incubated with antibody [3] | Binder
1 | binds | binds |  | 13G04 (cAb5778) (antibody, mouse IgG1, kappa, V domains shown, Mouse monoclonal antibody from a hybridoma (supernatant, later purified)) VH: EVHLQQSGPELVKPGASMKISCKASGYSFTAYTMNWVKQSHGKNLEWIGLINPYNGGTTYNQKFKGKATLTVDKSSSTAYMELLSLTSEDSAVYYCASYYGGRGWYFDVWGAGTSVTVSS VL: DIVLTQSPASLAVSLGQRATISCRASKSVSTSGYSYVHWYQQKPGQPPKLLIYLASNLESGVPARFSGSGSGTDFTLNIHPVEEEDAATYYCQNSRELPYTFGGGTKLEMKR
2 | binds | binds |  | 12A12 (cAb5776) (antibody, mouse IgG1, kappa, V domains shown, Mouse monoclonal antibody from a hybridoma (supernatant, later purified)) VH: EVQLQQSGPELVKPGVSMKISCKASGYSFTAYTMNWVKQSHGENLEWIGLINPYNGGTTYNQKFKGKATLTVDKSSSTAYMELLSLTSEDSAVYYCASYDYGYAMDYWGQGTSVTVSS VL: DVLMTQTPLSLPVSLGDQASISCRSSQSIVHRSGNTYLEWYLQKPGQSPKLLIYKVSNRFSGVPDRFSGSGSGTDFTLKISRVEAEDLGVYYCFQGSHVPWTFGGGTKLEIKR
3 | binds | binds |  | 12D02 (cAb5775) (antibody, mouse IgG1, kappa, V domains shown, Mouse monoclonal antibody from a hybridoma (supernatant, later purified)) VH: EVQLQQSGPELVKPGASMKISCKASGYSFTAYTMNWVKQSHGENLEWIGLINPYNGGTTYNQKFKGKATLTVDKSSSTAYMELLSLTSEDSAVYYCASYDYGYAMDYWGQGTSVTVSS VL: DVLMTQTPLSLPVSLGDQASISCRSSQSIVHRNGNTYLEWYLQKPGQSPKLLIYKVSNRFSGVPDRFSGSGSGTDFTLKISRVEAEDLGVYYCFQGSHVPWTFGGGTKLEIKR
4 |  |  | 6 fold decrease | 07F11C02 (cAb4853) (antibody, mouse IgG2a, kappa, V domains shown) VH: DVQLVESGGGLVQPGGSRKLSCAASGFAFSSFGMHWVRQAPERGLEWVAYISSASNTIYYADTVKGRFTISRDNPKSTLFLQMTSLRSEDTAIYYCAKRDWDLYAMDYWGQGTSVTVSS VL: DIVMTQSQKFLSTSVGDRVTITCKASQNVGTAVAWYQQKPGQSPELLIYSASNRHTGVPARFTGSGSGTDFTLTITNMQSEDLADYFCQQYSSSPTFGGGTKLESKR
5 | binds | binds |  | 12D08 (cAb5777) (antibody, mouse IgG2a, kappa, V domains shown, Mouse monoclonal antibody from a hybridoma (supernatant, later purified)) VH: EVQLQQSGAELVKPGASVKLSCTASGFNIKDTYMHWVKQRPEQGLIWIGNIDPANGHTKYAPKFQGKATITADTSSNTAYLQLSSLTSEDTAVYYCARSNDYDVDFDYWGQGTTLTVSS VL: DIVMSQSPSSLAVSAGEKVTMSCKSSQSLLNSRTRKNYLAWYQQKPGQSPKLLIYWASTRESGVPDRFTGSGSGTDFSLTISSVQAEDLAVYYCKQSYNLYTFGGGTKLEIKR
